Measured values published in patent publication WO2012007688A1 (dated 2012).

T1: fragment C of tetanus toxoid (Sigma, T3694) (Clostridium tetani, UniProt P04958 865-1315)
T1 sequence: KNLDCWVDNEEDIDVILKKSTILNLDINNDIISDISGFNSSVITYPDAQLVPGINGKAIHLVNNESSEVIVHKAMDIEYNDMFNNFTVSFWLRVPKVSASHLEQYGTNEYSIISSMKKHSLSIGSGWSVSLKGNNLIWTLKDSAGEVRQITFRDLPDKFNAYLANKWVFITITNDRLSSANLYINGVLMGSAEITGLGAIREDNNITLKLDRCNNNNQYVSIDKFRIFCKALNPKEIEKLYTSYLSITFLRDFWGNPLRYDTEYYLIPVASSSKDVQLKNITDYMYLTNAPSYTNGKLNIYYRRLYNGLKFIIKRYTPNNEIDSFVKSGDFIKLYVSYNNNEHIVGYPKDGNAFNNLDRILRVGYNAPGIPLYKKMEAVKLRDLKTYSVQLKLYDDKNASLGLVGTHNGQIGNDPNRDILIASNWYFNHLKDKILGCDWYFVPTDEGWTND

B1: Antibody 5 (human monoclonal antibody against tetanus toxin) (antibody, V domains shown)
VH: QLVQSGAEVKKPGSSVKVSCKASGGTLSGFAINWVRQAPGQGLEWMGGIIPDTGSPTYVQRFQGRVTMTADKSTSTAYMELNSLRSDDTAVYYCARSVMITFGGVLTPPNFDFWGQGTLVTVSS
VL: DIQMTQSPSSLSASVGDRVTISCRASQAISIYLNWYQQRPGKAPRLLIYAASNLQSGVPSRFSASGSGTDFTLTISSLQPEDFATYYCQQSKENPPTFGQGTKLEIKR
B2: Antibody 4 (human monoclonal antibody against tetanus toxin) (antibody, V domains shown)
VH: EVQLVESGGGLVQPGGSLRLSCAASGFSFSRHWMSWVRQAPGKGLEWVANIHYDLSEKYFVDSVRGRFTISRDNAKNSLYLEMNSLRADDTAVYYCARGGRSTVWPRGWFDLWGQGTLVTVSS
VL: EIVLTQSPGTLSLSPGERATLSCRASQSVSSSYLAWYQQKPGQAPRLLIYGASGRATGIPDRFSGSGSGTHFTLTISRLEPEDFAVYFCQQFADSRTFGQGTKLEIKR

Target: T1, fragment C of tetanus toxoid (Sigma, …)

Binder | Kd
B1 | 0.16 nM
B2 | 34 nM
